target: T1, biotinylated human 4-1BB (recombinant Fc fusion protein of the extracellular domain of human 4-1BB) (human, UniProt Q07011 24-186, biotinylated (site not stated)); assay: SPR (ProteOn), biotinylated human 4-1BB on NLC chip, PBST
T1 construct: Bought from BPS Bioscience; tie to the Fc fusion is by the Materials paragraph; also called h4-1BB; CD137; not shown: Fc part of the purchased fusion (BPS Bioscience)
Experimental: Briefly, biotinylated human 4-1 BB was diluted in PBST (PBS, pH 7.4 containing 0.005% Tween 20®) and coated on a NLC chip (BioRad) to a level of around 320 resonance units (RU) (600 RU for single trace SPR measurements). The interaction of ankyrin repeat protein and h4-1 BB was then measured by injecting 200 μl running buffer (PBS, pH 7.4 containing 0.005% Tween 20®) containing serial dilutions of ankyrin repeat proteins covering a concentration range between 50 nM and 0.5 nM for multi-trace SPR measurements or 50 nM for single trace measurements (on-rate measurement), followed by a running buffer flow for at least 30 minutes at a constant flow rate of 100 μl/min (off-rate measurement). The regeneration was performed using 30 μl of 10 mM Glycine pH 2 followed by 30 μl of 124 mM H₃PO₄. The signals (i.e. resonance unit (RU) values) of the interspots and a reference injection (i.e. injection of running buffer only) were subtracted from the RU traces obtained after injection of ankyrin repeat protein (double-referencing). Based on the SPR traces obtained from the on-rate and off-rate measurements, the on- and off-rate of the corresponding ankyrin repeat protein—4-1 BB interaction was determined.
Dissociation constants (KD) were calculated from the estimated on- and off-rates using standard procedures known to the person skilled in the art.

Row | Kd | Binder
1 | 0.13 nM | DARPin® protein #22 (designed binder) MRGSHHHHHHGSDLGEKLLWAAWEGQGDEVRILLAAGADVNAKDLTGRTPLHFAAHSGHLEIVEVLLKAGADVNAKDNAGRTPLHLAAELGHLEIVEVLLKAGADVNAQDKSGKTPADLAADAGHEDIAEVLQKAA
2 | 0.6 nM | DARPin® protein #23 (designed binder) MRGSHHHHHHGSDLGEKLLWAAYLGQDDEVRILLAAGADVNAKDATGRTPLHFAAHSGHLEIVEVLLKAGADVNAKDNAGRTPLHLAAELGHLEIVEVLLKAGADVNAQDKSGKTPADLAADAGHEDIAEVLQKAA
3 | 1.47 nM | DARPin® protein #18 (designed binder) MRGSHHHHHHGSDLGYKLLYAAAYGQDDEVRILLAAGADVNAKDQYGETPLHHAASHGHLEIVEVLLKAGADVNAKDTLGDTPLHLAAVVGHLEIVEVLLKAGADVNAQDTEGKTPADLAAYTGHEDIAEVLQKLN
4 | 1.25 nM | DARPin® protein #3 (designed binder) MRGSHHHHHHGSDLGRKLLQAAQLGQDDEVRELLKAGADVNAKDSRGITPLHVAAWQGHLEIVEVLLKASADVNAKDHAGITPLHLAAFLGHLEIVEVLLKAGADVNAQDQEGRTPADLAALQGHEDIAKVLQKLN
5 | 3.96 nM | DARPin® protein #27 (designed binder) MRGSHHHHHHGSDLGKKLLEAARAGQDDEVRELLKAGADVNAKDHQGATPLHNAAWAGHLEIVEVLLKAGADVNAKDKAGYTPLHIAAITGHLEIVEVLLKAGADVNAKDQWGKTPLHLAAQVGHLEIVEVLLKAGADVNAQDKSGKTPADLAADAGHEDIAKVLQKLN
6 | 1.6 nM | DARPin® protein #16 (designed binder) MRGSHHHHHHGSDLGAKLLNAAFFGQDDEVRILLAAGADVNAKDDYGHTPLHWAAVTGHLEIVEVLLKAGADVNAKDWLGETPLHHAAYEGHLEIVEVLLKAGADVNAQDEQGETPADLAAYEGHEDIAEVLLKAGADVNAQDDKGFTPADLAAIVGHEDIAEVLQKLN
7 | 0.02 nM | DARPin® protein #8 (designed binder) MRGSHHHHHHGSDLGKKLLEAARAGQDDEVRELLKAGADVNAKDRFGSTPLHIAAREGHLEIVEVLLKAGADVNAKDSWGATPLHIAAWRGHLEIVEVLLKAGADVNAKDRWGRTPLHIAAWTGHLEIVEVLLKACADVNAQDKSGKTPADLAADVGLEDIAEVLQKLN
8 | 0.35 nM | DARPin® protein #5 (designed binder) MRGSHHHHHHGSDLGKKLLEAARAGQDDEVRELLKAGADVNAKDQEHGSTPLHLAANYGHLEIVEVLLKAGADVNAKNWWGNTPLHLAAVYGHLEIVEVLLKAGADVNAKDNHGHTPLHLAAWYGHLEIVEVLLKAGADVNAQDKSGKTPADLAADAGHEDIAEVLQKAA
9 | 0.5 nM | DARPin® protein #17 (designed binder) MRGSHHHHHHGSDLGEKLLYAAYYGQDDEVRILLAAGADVNAKDHVGLTPLHYAAAIGHLEIVEVLLKAGADVNAKDHYGYTPLHYAAYKGHLEIVEVLLKAGADVNAQDSAGHTPADLAAHHGHEDIAEVLQKLN
10 | 0.51 nM | DARPin® protein #14 (designed binder) MRGSHHHHHHGSDLGQKLLYAAFYGQDDEVRILLAAGADVNAKDFFGTTPLHWAAHAGHLEIVEVLLKAGADVNAKDQWGTTPLHYAAYYGHLEIVEVLLKAGADVNAQDDKGFTPADLAAIVGHEDIAEVLQKLN
11 | 5 nM | DARPin® protein #15 (designed binder) MRGSHHHHHHGSDLGQKLLYAAYYGQDDEVRILLAAGADVNAKDFFGTTPLHWAAHAGHLEIVEVLLKAGADVNAKDQWGTTPLHYAAYQGHLEIVEVLLKAGADVNAQDTTGATPADLAAQAGHEDIAEVLQKLN
12 | 0.38 nM | DARPin® protein #11 (designed binder) MRGSHHHHHHGSDLGWKLLSAAWQGQDDEVRILLAAGADVNAKDTFGTTPLHWAAHAGHLEIVEVLLKAGADVNAKDQWGTTPLHYAAYYGHLEIVEVLLKAGADVNAQDDKGFTPADLAAIVGHEDIAEVLQKLN
13 | 0.74 nM | DARPin® protein #12 (designed binder) MRGSHHHHHHGSDLGQKLLHTAYDGQDDEVRILLAAGADVNAKDFFGTTPLHWAAHAGHLEIVEVLLKAGADVNAKDQWGTTPLHYAAYYGHLEIVEVLLKAGADVNAQDDKGFTPADLAAIVGHEDIAEVLQKLN
14 | 0.54 nM | DARPin® protein #7 (designed binder) MRGSHHHHHHGSDLGSKLLNAARKGQDDEVRILLAAGADVNAKDYYGQTPLHLAAVFGHLEIVEVLLKAGADVNAKDVLGRTPLHVAAYAGHLEIAEVLLKAGADVNAQDFDGFTPADLAAYVGLEDIAEVLQKLN
15 | 0.47 nM | DARPin® protein #1 (designed binder) MRGSHHHHHHGSDLGQKLLKAAQEGQDDEVRELLKAGADVNAKDLRGITPLHVAAWQGHLEIVEVLLKAGADVNAKDSKGETPLHLAAFRGHLEIVEVLLKAGADVNAQDQQGETPADLAALAGHVDIAEVLQKAA
16 | 0.83 nM | DARPin® protein #26 (designed binder) MRGSHHHHHHGSDLGKKLLEAARAGQDDEVRELLKAGADVNAKDHAGQTPLHIAALRGHLEIVEVLLKAGADVNAKDKYGQTPLHLAAILGHLEIVEVLLKAGADVNAKDQEGDTPLHIAAWQGHLEIVEVLLKAGADVNAQDKSGKTPADLAADAGHEDITEVLQKLN
17 | 0.16 nM | DARPin® protein #21 (designed binder) MRGSHHHHHHGSDLGEKLLTAAYYGQDDEVRILLAAGADVNAKDKQGLTPLHYAAAVGHLEIVEVLLKAGTDVNAKDFYGETPLHLAASRGHLEIVEVLLKAGADVNAQDKSGKTPADLAADAGHEDIAEVLQKAA
18 | 0.29 nM | DARPin® protein #24 (designed binder) MRGSHHHHHHGSDLGEKLLNAAYYGQDDEVRILLAAGADVNAKDVKGETPLHYAAAVGHLEIVEVLLKAGADVNAKDQYGATPLHLAAYKGHLEIVEVLLKAGADVNAQDKSGKTPADLAADAGHEDIAEVLQKAA
19 | 0.48 nM | DARPin® protein #20 (designed binder) MRGSHHHHHHGSDLGEKLLHAAYYGQDDEVRILLAAGADVNAKDDQGLTPLHLAAAIGHLEIVEVLLKAGADVNAKDAYGETPLHLAARRGHLEIVEVLLKAGADVNAQDKSGKTPADLAADAGHEDIAEVLQKAA
20 | 0.19 nM | DARPin® protein #9 (designed binder) MRGSHHHHHHGSDLGEKLLHAAYYGQDDEVRILLAAGADVNAKDNIGVTPLHFAAYFGHLEIVEVLLKAGADVNAQDYYGKTPADLAAYHGHEDIAEVLQKLN
21 | 0.25 nM | DARPin® protein #10 (designed binder) MRGSHHHHHHGSDLGDKLLHAAYYGQDDEVRILLAAGADVNAKDNIGVTPLHFAAYFGHLEIVEVLLKAGADVNAQDYYGKTPADLAAYHGHEDIAEVLQKLN
22 | 0.86 nM | DARPin® protein #2 (designed binder) MRGSHHHHHHGSDLGKKLLVAANVGQDDEVRILLAAGADVNAKDYHGYTPLHHAATYGHLEIVEVLLKAGADVNAKDQTGLTPLHLAAAKGHLEIVEVLLKAGADVNAQDHHGYTPADLAAFVGHEDIAVVLQKLN
23 | 2.58 nM | DARPin® protein #6 (designed binder) MRGSHHHHHHGSDLGKKLLVAANVGQDDEVRILLAAGADVNAKDYHGYTPLHHAATYGHLEIVEVLLKAGADVNAKDQTGLTPLHLAAAKGHLEIVEVLLKAGADVNAQDHHGYTPADLAAFVGHEDIAVVLQKLN
24 | 0.69 nM | DARPin® protein #13 (designed binder) MRGSHHHHHHGSDLGLKLLYAAAEGQDDEVRILLAAGADVNAKDTRGQTPLHYAAWFGHLEIVEVLLKAGADVNAKDWSGDTPLHVAAWRGHLEIVEVLLKAGADVNAQDNSGNTPADLAAWIGHEDIAEVLQKLN
25 | 2.25 nM | DARPin® protein #4 (designed binder) MRGSHHHHHHGSDLGKKLLEAARAGQDDEVRELLKAGADVNAKDTYGETPLHLAAWKGHLEIVEVLLKAGADVNAKDSIGITPLHVAAHHGHLEIVEVLLKAGADVNAKDKWGRTPLHLAALLGHLEIAEVLLKAGADVNAQDKSGKTPADLAADAGHDDIAEVLQKLN
26 | 1.56 nM | DARPin® protein #25 (designed binder) MRGSHHHHHHGSDLGKKLLEAARAGQDDEVRELLKAGADVNAKDEWGETPLHLAAWKGHLEIVEVLLKAGADVNAKDSIGITPLHVAAHHGHLEIVEVLLKAGADVNAKDKWGRTPLHLAALLGHLEIVEVLLKAGADVNAQDKSGKTPADLAADAGREDIAEVLQKLN
27 | 1.6 nM | DARPin® protein #19 (designed binder) MRGSHHHHHHGSDLGKKLLEAARAGQDDEVRELLKAGADVNAKDTHGWTPLHVAALEGHLEIVEVLLKAGAYVNAKDEWGQTPLHVAAWRGHLEIVEVLLKAGADVNAKDRYGWTPLHIAAWLGHLEIAEVLLKAGADVNAQDKSGKTPADLAADAGQEDIVEVLQKLN

Source: US20220298212A1 (Molecular Partners, published 2022)
